Reference: paper PMC2397485 (2008)

B1: Scp1(1-180) 1-180 (protein)
chain: MSYDKKADVTSLDEDLRQLRESKFSPEAIQNIKIWVYKSVLKEIAPPGDLLECLKDGTVLCKLANILYEADTGEANHISWKSSKMPFVQMDQISQFLSFSRKYGVPEDELFQTIDLFEKKDPAIVFQTLKSLSRYANKKHTDRFPVLGPQLSTKKPRPPVKSKPKHLQDGTGWSTFEYGY
B2: Scp1 (protein)
chain: SYDKKADVTSLDEDLRQLRESKFSPEAIQNIKIWVYKSVLKEIAPPGDLLECLKDGTVLCKLANILYEADTGEANHISWKSSKMPFVQMDQISQFLSFSRKYGVPEDELFQTIDLFEKKDPAIVFQTLKSLSRYANKKHTDRFPVLGPQLSTKKPRPPVKSKPKHLQDGTGWSTFEYGYMKGASQATEGVVLGQRRDIV

How the values were obtained:
Experiment in all cases: high-speed co-sedimentation
[1] = target: F-actin (skeletal muscle) (Oryctolagus cuniculus, UniProt P68135)
[2] = target: F-actin (Saccharomyces cerevisiae, UniProt P60010)
[3] = target: F-actin (act1-102) (Saccharomyces cerevisiae, UniProt P60010)

| Binder | Kd [1] [µM] | Kd [2] [µM] | Kd [3] [µM] |
| --- | --- | --- | --- |
| B1 | 7.1 |  |  |
| B2 | 2.1 | 1.3 | 7.9 |
